According to article doi:10.1101/2021.01.18.427223:

Target: VPS35 D620N (VPS35 D620N knock-in mouse, VKI) (mouse (endogenous in brain)), Q9EQH3
Test: co-IP
Details: remark: other sources report otherwise

percent reduction of co-IP against wild type: 25 to 30%
B1: WASH complex member FAM21, Q6PGL7 1-1334 (natural protein)
chain: MNRTSPDSERPPASEPVWERPWSVEEIRRSSQNWSLAADAGLLQFLQEFSQQTISRTHEIKKQVDGLIQETKATHCRLHNVFNDFLMLSNTQFIENRVYDEEVEEQVLKAEAEKAEQEKTREQKEIDLIPKVQEAVNYGLQVLDSAFEQLDIKAGNSDSEEDDANERVDLILEPKDLYIDRPLPYLIGSKLFMEQEDVGLGELSSEEGSVGSDRGSIVDSEDEKEEEESDEDFASHSDNDQNQHTTQISDEEEDDDGDLFADSEKEGDDIEDIEESAKSKRPTSFADELAARIKGDISNQRKEGQTDGKPQKTVKEKKERRTPADDEEDILFPPPTLTDEDFSPFGSRGGLFSNGQGLFDDEDESDLFKEAPRARPAQAPVSEELPPSPKPGKKIPAGAVSVLLGHPDVSGSTSAPSLKELQKHGQPTPGKSSHLPTPAGLFDDDDNDNDEDDNNFFMPSSSKPSKTDKVKSTAIIFDDDEGDLFKEKAEALPAASVSQTHESKTRADKTIALPSSKNLKLVSETKTQKGLFSDEEDSEDLFSSQSSSKPKSASLPSSQPPTSVSLFGDEDEEDSLFGSAAAKKQTSSLQPQSQEKAKPSEQPSKKTSALLFSSDEEDQWNIADSHTKLASDNKSKGELWDSGATQGQEAKAVKKTNLFEDDDDDEVDLFAIAKDSQKKTQRTSLLFEDDAESGSSLFGLPPTSVPSATTKKESVPKVPLLFSDEEDSEVPSGVKPEDLKVDNARVSPEVGSADVASIAQKEGLLPASDQEAGGPSDIFSSSSPLDKGAKGRTRTVLSLFDEDEDKVEDESSTCAPQDGREKGLKTDSRPKSTGVFQDEELLFSHKLQKDNDPDVDLFAGTKKIRSSVPSGGSLFGDDEDDDLFSSAKTQPVVPEKKGTLKKDHPVSLKNQDPLDSTQGSKEKSTWKTEPAQDSSGLTPFKSREPSSRIGKIQANLAINPAALLPTVALQIPGTKPVSSELAFPSSEPGRSHILESVPTLPGSVEAGVSFDLPAQADTLHSANKSRVKVRGKRRPQTRAARRLAAQESSEAEDVTVDRGPVAQLSSSPVLPNGHQPLLQPRMASGQTSSETATAPPWEGGPVLSAADRSFFVKSRPQTGNEADLFDSGDIFPKSRGSQSVEGAGVMAGEPPSHSSGGRKEKSLAFPDLSEGSSTEDLFQSVKPRAAKNRNPFPLLEDEEDLFADPRGKKNERKPDSHQDSVSKTHDIFEDDIFATEAIKPFPKKREKGRTLEPNLFDDNIDIFADLTVKPKEKSKKKVAAKSMFDDDTDDIFSSGLQAKASKPKSQSAEAASEQRSEHKVASIFDDPLNAFGSQ
